Laboratory results: patent US20240368250A1 (Ablynx, published 2024)

Legend:
[1] = molecular target: T1, Human FcRn (biotinylated human FcRn) (human, UniProt P61769 21-119); assay: SPR Biacore 8K+, biotinylated hFcRn on SA chip (~700 RU), pH 6.0, bivalent analyte fit (KD1)
T1 construct: Biotinylated human FcRn captured on a Series S Sensor Chip SA; also called human neonatal Fc receptor; hFcRn

[2] = molecular target: T1, Human FcRn (biotinylated human FcRn); assay: SPR Biacore 8K+, biotinylated hFcRn on SA chip (~700 RU), pH 6.0, bivalent analyte fit (kd1)
[3] = molecular target: T1, Human FcRn (biotinylated human FcRn); assay: SPR Biacore 8K+, biotinylated hFcRn on SA chip (~700 RU), pH 6.0, bivalent analyte fit (ka1)
[4] = molecular target: T1, Human FcRn (biotinylated human FcRn); assay: SPR Biacore 8K+, biotinylated hFcRn on SA chip (~700 RU), pH 6.0, bivalent analyte fit
[5] = molecular target: T1, Human FcRn (biotinylated human FcRn); assay: SPR Biacore 8K+, biotinylated hFcRn on SA chip (~500-600 RU), pH 6.0, bivalent analyte fit;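 note: analytes were Fc proteins binding to biotinylated human FcRn captured on a Series S streptavidin sensor chip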
[6] = molecular target: Human serum albumin (HSA; Sigma-Aldrich Cat No. A8763) (human, UniProt P02768 25-609); assay: SPR Biacore 8K+, HSA on C1 chip, pH 7.4, 1:1 fit
[7] = molecular target: T1, Human FcRn (biotinylated human FcRn); assay: SPR Biacore 8K+, biotinylated hFcRn on SA chip (~500-600 RU), pH 6.0, bivalent analyte fit (ka1)
[8] = molecular target: T1, Human FcRn (biotinylated human FcRn); assay: SPR Biacore 8K+, biotinylated hFcRn on SA chip (~500-600 RU), pH 6.0, bivalent analyte fit (kd1)
[9] = molecular target: T1, Human FcRn (biotinylated human FcRn); assay: SPR Biacore 8K+, biotinylated hFcRn on SA chip (~500-600 RU), pH 6.0, bivalent analyte fit (KD1)
[10] = molecular target: Mouse serum albumin (MSA; Albumin Bioscience Cat No. 2601) (mouse, UniProt P07724 25-608); assay: SPR Biacore 8K+, MSA on C1 chip, pH 7.4, 1:1 fit (off-rate only)

B1: T-0263-00_TP117 (antibody, human IgG1, kappa)
heavy 1: not shown
heavy 2: EVQLVESGGGLVQPGGSLRLSCAASGFNIRDTYIHWVRQAPGKGLEWVARIYPTQGYTRYADSVKGRFTISADTSKNTAYLQMNSLRAEDTAVYYCSRWGGEGFYAMDYWGQGTLVTVSSASTKGPSVFPLAPSSKSTSGGTAALGCLVKDYFPEPVTVSWNSGALTSGVHTFPAVLQSSGLYSLSSVVTVPSSSLGTQTYICNVNHKPSNTKVDKKVEPKSCDKTHTCPPCPAPELLGGPSVFLFPPKPKDTLMISRTPEVTCVVVDVSHEDPEVKFNWYVDGVEVHNAKTKPREEQYNSTYRVVSVLTVLHQDWLNGKEYKCKVSNKALPAPIEKTISKAKGQPREPQVCTLPPSRDELTKNQVSLSCAVKGFYPSDIAVEWESNGQPENNYKTTPPVLDSDGSFFLVSKLTVDKSRWQQGNVFSCSVMHEALHNRFTQKSLSLSPG
light: not shown
notes: Full-length IgG1 with knob-in-hole mutations (hole chain H435R, Y436F), no C-terminal fusion
B1 gave a Kd [1] of 1300 nM, a koff [2] of 0.16 s⁻¹ and a kon [3] of 120000 M⁻¹ s⁻¹. The ka2 [4] was 3.1e-05 1/RUs and the kd2 [4] was 0.001 s⁻¹.

B2: T-0263-00_TP118 (antibody, human IgG1, kappa)
heavy 1: not shown
heavy 2: EVQLVESGGGLVQPGGSLRLSCAASGFNIRDTYIHWVRQAPGKGLEWVARIYPTQGYTRYADSVKGRFTISADTSKNTAYLQMNSLRAEDTAVYYCSRWGGEGFYAMDYWGQGTLVTVSSASTKGPSVFPLAPSSKSTSGGTAALGCLVKDYFPEPVTVSWNSGALTSGVHTFPAVLQSSGLYSLSSVVTVPSSSLGTQTYICNVNHKPSNTKVDKKVEPKSCDKTHTCPPCPAPELLGGPSVFLFPPKPKDTLMISRTPEVTCVVVDVSHEDPEVKFNWYVDGVEVHNAKTKPREEQYNSTYRVVSVLTVLHQDWLNGKEYKCKVSNKALPAPIEKTISKAKGQPREPQVCTLPPSRDELTKNQVSLSCAVKGFYPSDIAVEWESNGQPENNYKTTPPVLDSDGSFFLVSKLTVDKSRWQQGNVFSCSVMHEALHNRFTQKSLSLSPG
light: not shown
notes: Full-length IgG1 knob-in-hole with a C-terminal irrelevant ISVD (9GS) on chain 1; control of TP121
In the case of B2, the Kd [1] is reported as 1200 nM, the koff [2] is reported as 0.15 s⁻¹ and the kon [3] is reported as 120000 M⁻¹ s⁻¹. The ka2 [4] was 2.3e-05 1/RUs and the kd2 [4] was 0.00054 s⁻¹.

B3: TPP-66174 (Fc fusion)
chain 1: DVQLVESGGGVVQAGGSLSISCAASGGSLSNYVLGWFRQAPGKEREFVAAINWRGDITIGPPNVEGRFTISRDNAKNTGYLQMNSLAPDDTALYYCGAGTPLNPGAYIYDWSYDYWGRGTLVTVSSDKTHTCPPCPAPEAAGGPSVFLFPPKPKDTLYITREPEVTCVVVDVSQEDPEVQFNWYVDGVEVHNAKTKPREEQFNSTYRVVSVLTVLHQDWLNGKEYKCKVSNKGLPSSIEKTISKAKGQPREPQVYTLPPCQEEMTKNQVSLWCLVKGFYPSDIAVEWESNGQPENNYKTTPPVLDSDGSFFLYSKLTVDKSRWQEGNVFSCSVMHEALHNHYTQKSLSLSLGGGGGSGGGGSGGGGSGGGGSGGGGSGGGGSGGGGSEVQLVESGGGVVQPGGSLRLSCAASGFTFRSFGMSWVRQAPGKGPEWVSSISGSGSDTLYADSVKGRFTISRDNSKNTLYLQMNSLRPEDTALYYCTIGGSLSRSSQGTLVTVSSA
chain 2: DVQLVESGGGVVQAGGSLSISCAASGGSLSNYVLGWFRQAPGKEREFVAAINWRGDITIGPPNVEGRFTISRDNAKNTGYLQMNSLAPDDTALYYCGAGTPLNPGAYIYDWSYDYWGRGTLVTVSSDKTHTCPPCPAPEAAGGPSVFLFPPKPKDTLYITREPEVTCVVVDVSQEDPEVQFNWYVDGVEVHNAKTKPREEQFNSTYRVVSVLTVLHQDWLNGKEYKCKVSNKGLPSSIEKTISKAKGQPREPQVCTLPPSQEEMTKNQVSLSCAVKGFYPSDIAVEWESNGQPENNYKTTPPVLDSDGSFFLVSKLTVDKSRWQEGNVFSCSVMHEALHNRFTQKSLSLSLG
notes: IgG4 FALA Fc (YTE) knob-in-hole, C-terminal ALB23002 via 35GS; also called ALB23002 ISVD-Fc(YTE) polypeptide
B3 was tested, and the KD2 [5] was 2.04 M, the ka2 [5] was 55.8 1/RUs and the kd2 [5] was 114 s⁻¹. The Kd [6] was 21.5 nM, the koff [6] was 0.00104 s⁻¹ and the kon [6] was 48400 M⁻¹ s⁻¹. The kon [7] was 65000 M⁻¹ s⁻¹, the koff [8] was 0.00786 s⁻¹ and the Kd [9] was 121 nM. For the same binder, the koff [10] was 0.0819 s⁻¹.

B4: TPP-66148 (Fc fusion)
chain 1: DVQLVESGGGVVQAGGSLSISCAASGGSLSNYVLGWFRQAPGKEREFVAAINWRGDITIGPPNVEGRFTISRDNAKNTGYLQMNSLAPDDTALYYCGAGTPLNPGAYIYDWSYDYWGRGTLVTVSSDKTHTCPPCPAPEAAGGPSVFLFPPKPKDTLMISRTPEVTCVVVDVSQEDPEVQFNWYVDGVEVHNAKTKPREEQFNSTYRVVSVLTVLHQDWLNGKEYKCKVSNKGLPSSIEKTISKAKGQPREPQVYTLPPCQEEMTKNQVSLWCLVKGFYPSDIAVEWESNGQPENNYKTTPPVLDSDGSFFLYSKLTVDKSRWQEGNVFSCSVMHEALHNHYTQKSLSLSLGGGGGSGGGGSGGGGSGGGGSGGGGSGGGGSGGGGSEVQLVESGGGVVQPGGSLRLSCAASGLTFSSYAMGWFRQAPGKERERVVSISRGGGYTYYADSVKGRFTISRDNSKNTVYLQMNSLRPEDTALYYCAAARYWATGSEYEFDYWGQGTLVTVSSA
chain 2: DVQLVESGGGVVQAGGSLSISCAASGGSLSNYVLGWFRQAPGKEREFVAAINWRGDITIGPPNVEGRFTISRDNAKNTGYLQMNSLAPDDTALYYCGAGTPLNPGAYIYDWSYDYWGRGTLVTVSSDKTHTCPPCPAPEAAGGPSVFLFPPKPKDTLMISRTPEVTCVVVDVSQEDPEVQFNWYVDGVEVHNAKTKPREEQFNSTYRVVSVLTVLHQDWLNGKEYKCKVSNKGLPSSIEKTISKAKGQPREPQVCTLPPSQEEMTKNQVSLSCAVKGFYPSDIAVEWESNGQPENNYKTTPPVLDSDGSFFLVSKLTVDKSRWQEGNVFSCSVMHEALHNRFTQKSLSLSLG
notes: IgG4 FALA Fc knob-in-hole, C-terminal ALBX00002 via 35GS
B4 was tested, and the KD2 [5] was 2.14 M, the ka2 [5] was 3.33e-05 1/RUs and the kd2 [5] was 7.12e-05 s⁻¹. The Kd [6] was 5.1 nM, the koff [6] was 0.000247 s⁻¹ and the kon [6] was 48500 M⁻¹ s⁻¹. It also gave a kon [7] of 107000 M⁻¹ s⁻¹, a koff [8] of 0.11 s⁻¹ and a Kd [9] of 1030 nM. The koff [10] was 0.00187 s⁻¹.

B5: TPP-66149 (Fc fusion)
chain 1: DVQLVESGGGVVQAGGSLSISCAASGGSLSNYVLGWFRQAPGKEREFVAAINWRGDITIGPPNVEGRFTISRDNAKNTGYLQMNSLAPDDTALYYCGAGTPLNPGAYIYDWSYDYWGRGTLVTVSSDKTHTCPPCPAPEAAGGPSVFLFPPKPKDTLMISRTPEVTCVVVDVSQEDPEVQFNWYVDGVEVHNAKTKPREEQFNSTYRVVSVLTVLHQDWLNGKEYKCKVSNKGLPSSIEKTISKAKGQPREPQVYTLPPCQEEMTKNQVSLWCLVKGFYPSDIAVEWESNGQPENNYKTTPPVLDSDGSFFLYSKLTVDKSRWQEGNVFSCSVMHEALHNHYTQKSLSLSLGGGGGSGGGGSGGGGSGGGGSGGGGSGGGGSGGGGSEVQLVESGGGVVQPGDSLRLSCAASGGTFSTYVMGWFRQAPGKEREFVSAISQNSIHTYYANSVKGRFTISRDNSKNTVYLQLNSLRPEDTALYYCAASRFTSWYTADYEYDYWGQGTLVTVSSA
chain 2: DVQLVESGGGVVQAGGSLSISCAASGGSLSNYVLGWFRQAPGKEREFVAAINWRGDITIGPPNVEGRFTISRDNAKNTGYLQMNSLAPDDTALYYCGAGTPLNPGAYIYDWSYDYWGRGTLVTVSSDKTHTCPPCPAPEAAGGPSVFLFPPKPKDTLMISRTPEVTCVVVDVSQEDPEVQFNWYVDGVEVHNAKTKPREEQFNSTYRVVSVLTVLHQDWLNGKEYKCKVSNKGLPSSIEKTISKAKGQPREPQVCTLPPSQEEMTKNQVSLSCAVKGFYPSDIAVEWESNGQPENNYKTTPPVLDSDGSFFLVSKLTVDKSRWQEGNVFSCSVMHEALHNRFTQKSLSLSLG
notes: IgG4 FALA Fc knob-in-hole, C-terminal T023500029 via 35GS
In the case of B5, the KD2 [5] is reported as 3.39 M, the ka2 [5] is reported as 4.37e-05 1/RUs and the kd2 [5] is reported as 0.000148 s⁻¹. For the same binder, the Kd [6] was 8.2 nM, the koff [6] was 0.000511 s⁻¹ and the kon [6] was 62300 M⁻¹ s⁻¹. It also gave a kon [7] of 87000 M⁻¹ s⁻¹, a koff [8] of 0.104 s⁻¹ and a Kd [9] of 1200 nM. The koff [10] was 0.000503 s⁻¹.

B6: TPP-66151 (Fc fusion)
chain 1: DVQLVESGGGVVQAGGSLSISCAASGGSLSNYVLGWFRQAPGKEREFVAAINWRGDITIGPPNVEGRFTISRDNAKNTGYLQMNSLAPDDTALYYCGAGTPLNPGAYIYDWSYDYWGRGTLVTVSSDKTHTCPPCPAPEAAGGPSVFLFPPKPKDTLMISRTPEVTCVVVDVSQEDPEVQFNWYVDGVEVHNAKTKPREEQFNSTYRVVSVLTVLHQDWLNGKEYKCKVSNKGLPSSIEKTISKAKGQPREPQVYTLPPCQEEMTKNQVSLWCLVKGFYPSDIAVEWESNGQPENNYKTTPPVLDSDGSFFLYSKLTVDKSRWQEGNVFSCSVMHEALHNHYTQKSLSLSLG
chain 2: DVQLVESGGGVVQAGGSLSISCAASGGSLSNYVLGWFRQAPGKEREFVAAINWRGDITIGPPNVEGRFTISRDNAKNTGYLQMNSLAPDDTALYYCGAGTPLNPGAYIYDWSYDYWGRGTLVTVSSDKTHTCPPCPAPEAAGGPSVFLFPPKPKDTLMISRTPEVTCVVVDVSQEDPEVQFNWYVDGVEVHNAKTKPREEQFNSTYRVVSVLTVLHQDWLNGKEYKCKVSNKGLPSSIEKTISKAKGQPREPQVCTLPPSQEEMTKNQVSLSCAVKGFYPSDIAVEWESNGQPENNYKTTPPVLDSDGSFFLVSKLTVDKSRWQEGNVFSCSVMHEALHNRFTQKSLSLSLGGGGGSGGGGSGGGGSGGGGSGGGGSGGGGSGGGGSVKVKFWPRGEEKVVDTSKIAWVLRADKTVMFKYDDNGKKGYGVVLEKDAPKELLDMLARAEREK
For B6, the KD2 [5] was 2.08 M, the ka2 [5] was 6.98e-05 1/RUs and the kd2 [5] was 0.000145 s⁻¹. For the same binder, the Kd [6] was 2.61 nM, the koff [6] was 0.00031 s⁻¹ and the kon [6] was 119000 M⁻¹ s⁻¹. It also gave a kon [7] of 102000 M⁻¹ s⁻¹, a koff [8] of 0.148 s⁻¹ and a Kd [9] of 1460 nM. It also gave a koff [10] of 0.00175 s⁻¹.
